Reference: paper doi:10.1101/2020.05.05.065912
Like-named read-outs stand apart in the source and are kept apart here.

Key:
BRS-Myosin VI Tail-mRFP [1] = biological target: BRS-Myosin VI Tail-mRFP (UniProt Q9UM54); test: FRET or BRET
BRS-Myosin VI Tail-mRFP [2] = biological target: BRS-Myosin VI Tail-mRFP (UniProt Q9UM54); test: FRET or BRET; remark: listed apart in the source

UniProt Q9UM54, sequence (Q9UM54 whole entry): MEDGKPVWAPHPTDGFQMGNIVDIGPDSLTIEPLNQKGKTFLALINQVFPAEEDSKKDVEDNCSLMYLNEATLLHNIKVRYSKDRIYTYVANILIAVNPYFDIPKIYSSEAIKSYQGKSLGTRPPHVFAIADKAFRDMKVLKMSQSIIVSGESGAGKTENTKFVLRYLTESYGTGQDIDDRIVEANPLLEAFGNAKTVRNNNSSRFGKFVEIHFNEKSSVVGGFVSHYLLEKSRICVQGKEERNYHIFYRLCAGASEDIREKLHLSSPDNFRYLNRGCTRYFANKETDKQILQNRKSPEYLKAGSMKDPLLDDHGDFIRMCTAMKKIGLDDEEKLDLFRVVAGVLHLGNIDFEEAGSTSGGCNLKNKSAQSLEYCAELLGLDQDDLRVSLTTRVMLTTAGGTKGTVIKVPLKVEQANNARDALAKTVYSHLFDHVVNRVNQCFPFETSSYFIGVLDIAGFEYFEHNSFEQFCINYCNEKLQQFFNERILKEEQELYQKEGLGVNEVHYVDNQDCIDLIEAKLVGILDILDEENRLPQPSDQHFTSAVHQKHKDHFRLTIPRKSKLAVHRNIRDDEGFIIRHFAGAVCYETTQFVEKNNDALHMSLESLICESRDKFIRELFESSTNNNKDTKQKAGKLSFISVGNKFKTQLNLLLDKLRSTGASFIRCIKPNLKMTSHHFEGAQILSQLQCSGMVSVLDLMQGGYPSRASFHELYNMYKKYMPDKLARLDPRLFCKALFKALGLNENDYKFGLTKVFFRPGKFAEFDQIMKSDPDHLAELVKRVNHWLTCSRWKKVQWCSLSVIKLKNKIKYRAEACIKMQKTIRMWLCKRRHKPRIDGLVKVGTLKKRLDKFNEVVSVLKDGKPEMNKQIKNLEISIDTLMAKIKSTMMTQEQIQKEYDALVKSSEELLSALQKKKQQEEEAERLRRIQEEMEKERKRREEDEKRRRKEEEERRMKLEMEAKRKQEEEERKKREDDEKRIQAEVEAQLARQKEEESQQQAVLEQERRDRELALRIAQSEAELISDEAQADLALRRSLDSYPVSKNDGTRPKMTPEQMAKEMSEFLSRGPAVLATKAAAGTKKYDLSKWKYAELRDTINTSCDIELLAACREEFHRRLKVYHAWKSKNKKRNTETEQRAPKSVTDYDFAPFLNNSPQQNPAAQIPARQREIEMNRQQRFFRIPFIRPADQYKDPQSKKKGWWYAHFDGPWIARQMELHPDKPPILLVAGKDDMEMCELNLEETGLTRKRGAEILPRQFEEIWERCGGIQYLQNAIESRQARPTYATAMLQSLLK

B1: GFP-NDP52 (natural protein)
chain: MEETIKDPPTSAVLLDHCHFSQVIFNSVEKFYIPGGDVTCHYTFTQHFIPRRKDWIGIFRVGWKTTREYYTFMWVTLPIDLNNKSAKQQEVQFKAYYLPKDDEYYQFCYVDEDGVVRGASIPFQFRPENEEDILVVTTQGEVEEIEQHNKELCKENQELKDSCISLQKQNSDMQAELQKKQEELETLQSINKKLELKVKEQKDYWETELLQLKEQNQKMSSENEKMGIRVDQLQAQLSTQEKEMEKLVQGDQDKTEQLEQLKKENDHLFLSLTEQRKDQKKLEQTVEQMKQNETTAMKKQQELMDENFDLSKRLSENEIICNALQRQKERLEGENDLLKRENSRLLSYMGLDFNSLPYQVPTSDEGGARQNPGLAYGNPYSGIQESSSPSPLSIKKCPICKADDICDHTLEQQQMQPLCFNCPICDKIFPATEKQIFEDHVFCHSL
**Q.** Which results are given for B1?
**A.** Kd (BRS-Myosin VI Tail-mRFP [1]): 1100 nM; Kd (BRS-Myosin VI Tail-mRFP [2]): 3900 nM
